Tests used:
Experiment in all cases: Cytotoxicity of bioconjugates of varying DPR (Series 2)
Assay type in all cases: cell-based, human
Details in all cases: Series 2 bioconjugates
OV AR3 = test system: OV AR3
Description: (§1) A series of bioconjugates containing DM1, DM3, DM4 or ABZ981 synthesized under varying reaction conditions, resulting in different average DPRs. The cytotoxicity of these bioconjugates were evaluated in vitro in a panel of tumor cell lines (leukemia, breast, colorectal, ovarian and lung).

COLO-205 = test system: COLO-205
Description: as §1

NCl-H522 = test system: NCl-H522
Description: as §1

SKOV-3 = test system: SKOV-3
Description: as §1

B1: AH00-3D: Series 2 AFP bioconjugate, toxin printed DME (DM3), DPR 4 (conjugate, UniProt P02771 19-609, looked up)
Alpha-fetoprotein: RTLHRNEYGIASILDSYQCTAEISLADLATIFFAQFVQEATYKEVSKMVKDALTAIEKPTGDEQSSGCLENQLPAFLEELCHEKEILEKYGHSDCCSQSEEGRHNCFLAHKKPTPASIPLFQVPEPVTSCEAYEEDRETFMNKFIYEIARRHPFLYAPTILLWAARYDKIIPSCCKAENAVECFQTKAATVTKELRESSLLNQHACAVMKNFGTRTFQAITVTKLSQKFTKVNFTEIQKLVLDVAHVHEHCCRGDVLDCLQDGEKIMSYICSQQDTLSNKITECCKLTTLERGQCIIHAENDEKPEGLSPNLNRFLGDRDFNQFSSGEKNIFLASFVHEYSRRHPQLAVSVILRVAKGYQELLEKCFQTENPLECQDKGEEELQKYIQESQALAKRSCGLFQKLGEYYLQNAFLVAYTKKAPQLTSSELMAITRKMAATAATCCQLSEDKLLACGEGAADIIIGHLCIRHEMTPVNPGVGQCCTSSYANRRPCFSSLVVDETYVPPAFSDDKFIFHKDLCQAQGVALQTMKQEFLINLVKQKPQITEEQLEAVIADFSGLLEKCCQGQEQEVCFAEEGQKLISKTRAALGV
modifications: DM3 maytansinoid toxin conjugate, DPR 4
Molecule B1 has an IC50 (OV AR3) of 5.47 nM, an IC50 (COLO-205) of 10.7 nM and an IC50 (NCl-H522) of 21.9 nM. For the same molecule, the IC50 (SKOV-3) was 22.8 nM.

Source: patent US20250121075A1, “ALPHA-FETOPROTEIN BIOCONJUGATES FOR DISEASE TREATMENT” (priority 2021, published 2025)
